# T1: hCEACAM5, human CEACAM5 ECD (35-685) (human, UniProt P06731 35-685)
# T1 construct: produced in HEK293; also called human CEACAM5 protein; human CEACAM5 extracellular domain
# T1 sequence: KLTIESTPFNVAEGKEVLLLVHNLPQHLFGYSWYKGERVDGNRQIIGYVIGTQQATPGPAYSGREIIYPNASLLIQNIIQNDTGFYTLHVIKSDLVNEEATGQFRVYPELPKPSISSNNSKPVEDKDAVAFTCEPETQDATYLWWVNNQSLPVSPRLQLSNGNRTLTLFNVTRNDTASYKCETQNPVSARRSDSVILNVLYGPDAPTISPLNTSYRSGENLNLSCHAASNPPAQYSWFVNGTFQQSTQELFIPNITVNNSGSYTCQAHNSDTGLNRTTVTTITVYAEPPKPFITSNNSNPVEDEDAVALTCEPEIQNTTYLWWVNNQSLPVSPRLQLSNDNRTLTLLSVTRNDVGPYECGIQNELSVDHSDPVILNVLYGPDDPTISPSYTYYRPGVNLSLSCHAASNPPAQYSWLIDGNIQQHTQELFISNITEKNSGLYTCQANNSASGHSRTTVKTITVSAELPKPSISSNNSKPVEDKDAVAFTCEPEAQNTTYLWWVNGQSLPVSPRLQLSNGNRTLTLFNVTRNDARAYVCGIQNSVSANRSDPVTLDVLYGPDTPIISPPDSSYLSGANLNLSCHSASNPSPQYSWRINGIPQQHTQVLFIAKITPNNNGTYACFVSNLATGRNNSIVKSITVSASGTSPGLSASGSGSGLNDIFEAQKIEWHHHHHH
# T2: cCEACAM5, M. fascicularis CEACAM5 ECD (35-688) (Macaca fascicularis)
# T2 construct: ECD followed by a 24 amino acid extension containing a His-Tag; also called cynomolgus CEACAM5; monkey CEACAM5
# T2 chain: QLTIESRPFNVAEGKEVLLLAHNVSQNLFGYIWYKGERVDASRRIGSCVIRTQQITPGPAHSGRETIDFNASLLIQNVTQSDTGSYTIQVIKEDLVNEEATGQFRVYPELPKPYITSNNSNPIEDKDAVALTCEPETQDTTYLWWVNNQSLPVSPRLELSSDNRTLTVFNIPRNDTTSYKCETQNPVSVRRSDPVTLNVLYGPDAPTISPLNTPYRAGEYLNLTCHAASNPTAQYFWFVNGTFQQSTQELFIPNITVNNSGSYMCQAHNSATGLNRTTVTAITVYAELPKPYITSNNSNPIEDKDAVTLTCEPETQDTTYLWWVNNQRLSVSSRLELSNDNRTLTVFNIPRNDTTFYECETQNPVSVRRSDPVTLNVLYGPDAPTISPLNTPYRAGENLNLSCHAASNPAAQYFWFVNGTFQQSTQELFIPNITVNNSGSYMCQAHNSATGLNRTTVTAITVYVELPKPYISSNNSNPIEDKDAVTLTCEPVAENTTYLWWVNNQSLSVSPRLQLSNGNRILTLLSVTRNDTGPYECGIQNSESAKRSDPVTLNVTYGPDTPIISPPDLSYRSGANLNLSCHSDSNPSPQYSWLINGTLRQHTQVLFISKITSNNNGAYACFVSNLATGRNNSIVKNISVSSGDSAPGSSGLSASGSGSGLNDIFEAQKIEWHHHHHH
# How the values were obtained:
# [1] = molecular target: T1, hCEACAM5, human CEACAM5 ECD (35-685); experiment: SPR screening (Biacore T200) of example 6.4
# Method: (§1) To evaluate impact of these modifications, IgGs binding was determined by measuring SPR signals with a Biacore T200 unit (GE Healthcare). Anti-human Fc antibodies were coupled to a Series S CM5 chip via amine coupling kit to reach a level of 10,000 response units (RU). Approximately 300 to 600 RU of each variant were captured by injecting supernatants at 1 μg/mL with a contact time of 60 seconds and a flow rate of 10 μL/min. All experiments were performed at 25° C. with HBS-EP+(10 mM Hepes, 150 mM NaCl, 3 mM EDTA, 0.05% surfactant P20) as the running buffer. In a screening mode, the human CEACAM5 cynomolgus CEACAM5/human A3B3 domain was injected at 50 nM over the captured IgG variants at a flow rate of 30 μLimin for 1 minute. […]
# (§2) For each experiment, response data were processed using a reference surface, thereby allowing correction for bulk refractive index changes and any non-specific binding. […] First, the binding activity is estimated by the proportion of the theoretical maximum signal measured (percentage of Rmax, see FIG. 16). Second, the percentage of remaining signal is calculated using dissociation report points (the first one 10 seconds after the end of the injection and the second one 50 seconds after the end of injection) and reflects the stability of binding (see FIG. 17).
# [2] = molecular target: T2, cCEACAM5, M. fascicularis CEACAM5 ECD …; experiment: SPR screening (Biacore T200) of example 6.4
# Method: as §1, §2
# [3] = molecular target: T1, hCEACAM5, human CEACAM5 ECD (35-685); experiment: SPR (Biacore T200), IgG captured by anti-human Fc, antigen injected at 50 nM; % remaining signal after 50 seconds
# Method: (§3) To evaluate impact of these modifications, IgGs binding was determined by measuring SPR signals with a Biacore T200 unit (GE Healthcare). Anti-human Fc antibodies were coupled to a Series S CM5 chip via amine coupling kit to reach a level of 10,000 response units (RU). Approximately 300 to 600 RU of each variant were captured by injecting supernatants at 1 μg/mL with a contact time of 60 seconds and a flow rate of 10 μL/min. All experiments were performed at 25° C. with HBS-EP+(10 mM Hepes, 150 mM NaCl, 3 mM EDTA, 0.05% surfactant P20) as the running buffer. In a screening mode, the human CEACAM5 cynomolgus CEACAM5/human A3B3 domain was injected at 50 nM over the captured IgG variants at a flow rate of 30 μLimin for 1 minute. A dissociation phase of 60 seconds was held before the surface was regenerated with 1 pulse injection of 3 M MgCl₂ at a flow rate of 10 μLiminute and a contact time of 30 seconds.
# (§4) For each experiment, response data were processed using a reference surface, thereby allowing correction for bulk refractive index changes and any non-specific binding. Data were double referenced using response from blank injections. According to the screening method described in an application note from GE Healthcare (Application note 28-9777-72 AA), two parameters were considered to rank the variants with respect to binding characteristics. First, the binding activity is estimated by the proportion of the theoretical maximum signal measured (percentage of Rmax, see FIG. 16). Second, the percentage of remaining signal is calculated using dissociation report points (the first one 10 seconds after the end of the injection and the second one 50 seconds after the end of injection) and reflects the stability of binding (see FIG. 17).
# [4] = molecular target: T2, cCEACAM5, M. fascicularis CEACAM5 ECD …; experiment: as above
# Method: as §3, §4
# [5] = molecular target: T1, hCEACAM5, human CEACAM5 ECD (35-685); experiment: SPR (Biacore T200), IgG captured by anti-human Fc, antigen injected at 50 nM; % Rmax reached
# Method: as §3, §4
# [6] = molecular target: T2, cCEACAM5, M. fascicularis CEACAM5 ECD …; experiment: as above
# Method: as §3, §4
binder,measurement,setting,value
"MAb2_VLg5VHg2 (antibody, human IgG1, V domains shown, Fused to human IgG1 and human Ckappa constant domains; tested as IgG in HEK293 supernatants diluted to 1 ug/ml; Parent of the alanine-scanning variants; also called MAb2_VLg5Hg2; humanized MAb2 grafted on IGHV3-23 / IGKV1D-39) VH: EVQLVESGGGLVQPGGSLRLSCAASGFVFSSYDMSWVRQAPGKGLEWVSYISSGGGITYYADSVKGRFTISRDNSKNTLYLQMNSLRAEDTAVYYCAAHYFGSSGPFAYWGQGTLVTVSS VL: DIQMTQSPSSLSASVGDRVTITCRASENIFSYLAWYQQKPGKAPKLLIYNTRTLQSGVPSRFSGSGSGTDFTLTISSLQPEDFATYYCQHHYGTPFTFGQGTKLEIK",binding result,[1],binds
same,binding result,[2],binds
"LC_T51A (antibody, V domains shown, variant of MAb2_VLg5VHg2) VH: EVQLVESGGGLVQPGGSLRLSCAASGFVFSSYDMSWVRQAPGKGLEWVSYISSGGGITYYADSVKGRFTISRDNSKNTLYLQMNSLRAEDTAVYYCAAHYFGSSGPFAYWGQGTLVTVSS VL: DIQMTQSPSSLSASVGDRVTITCRASENIFSYLAWYQQKPGKAPKLLIYNARTLQSGVPSRFSGSGSGTDFTLTISSLQPEDFATYYCQHHYGTPFTFGQGTKLEIK",binding result,[3],binds
same,binding result,[4],binds
"LC_T94A (antibody, V domains shown, variant of MAb2_VLg5VHg2) VH: EVQLVESGGGLVQPGGSLRLSCAASGFVFSSYDMSWVRQAPGKGLEWVSYISSGGGITYYADSVKGRFTISRDNSKNTLYLQMNSLRAEDTAVYYCAAHYFGSSGPFAYWGQGTLVTVSS VL: DIQMTQSPSSLSASVGDRVTITCRASENIFSYLAWYQQKPGKAPKLLIYNTRTLQSGVPSRFSGSGSGTDFTLTISSLQPEDFATYYCQHHYGAPFTFGQGTKLEIK",binding result,[5],binds
"LC_T51A-T94A (antibody, V domains shown, combination variant of MAb2_VLg5VHg2) VH: EVQLVESGGGLVQPGGSLRLSCAASGFVFSSYDMSWVRQAPGKGLEWVSYISSGGGITYYADSVKGRFTISRDNSKNTLYLQMNSLRAEDTAVYYCAAHYFGSSGPFAYWGQGTLVTVSS VL: DIQMTQSPSSLSASVGDRVTITCRASENIFSYLAWYQQKPGKAPKLLIYNARTLQSGVPSRFSGSGSGTDFTLTISSLQPEDFATYYCQHHYGAPFTFGQGTKLEIK",binding result,[5],binds
same,binding result,[6],binds
"HC_S53A (antibody, V domains shown, variant of MAb2_VLg5VHg2) VH: EVQLVESGGGLVQPGGSLRLSCAASGFVFSSYDMSWVRQAPGKGLEWVSYISAGGGITYYADSVKGRFTISRDNSKNTLYLQMNSLRAEDTAVYYCAAHYFGSSGPFAYWGQGTLVTVSS VL: DIQMTQSPSSLSASVGDRVTITCRASENIFSYLAWYQQKPGKAPKLLIYNTRTLQSGVPSRFSGSGSGTDFTLTISSLQPEDFATYYCQHHYGTPFTFGQGTKLEIK",binding result,[3],binds
same,binding result,[4],binds
"LC_S31A-HC_G54Y (antibody, V domains shown, combination variant of MAb2_VLg5VHg2) VH: EVQLVESGGGLVQPGGSLRLSCAASGFVFSSYDMSWVRQAPGKGLEWVSYISSYGGITYYADSVKGRFTISRDNSKNTLYLQMNSLRAEDTAVYYCAAHYFGSSGPFAYWGQGTLVTVSS VL: DIQMTQSPSSLSASVGDRVTITCRASENIFAYLAWYQQKPGKAPKLLIYNTRTLQSGVPSRFSGSGSGTDFTLTISSLQPEDFATYYCQHHYGTPFTFGQGTKLEIK",binding result,[5],binds
same,binding result,[6],binds
"LC_T53I-HC_S53A (antibody, V domains shown, combination variant of MAb2_VLg5VHg2) VH: EVQLVESGGGLVQPGGSLRLSCAASGFVFSSYDMSWVRQAPGKGLEWVSYISAGGGITYYADSVKGRFTISRDNSKNTLYLQMNSLRAEDTAVYYCAAHYFGSSGPFAYWGQGTLVTVSS VL: DIQMTQSPSSLSASVGDRVTITCRASENIFSYLAWYQQKPGKAPKLLIYNTRILQSGVPSRFSGSGSGTDFTLTISSLQPEDFATYYCQHHYGTPFTFGQGTKLEIK",binding result,[5],binds
same,binding result,[6],binds
"LC_S31A (antibody, V domains shown, variant of MAb2_VLg5VHg2) VH: EVQLVESGGGLVQPGGSLRLSCAASGFVFSSYDMSWVRQAPGKGLEWVSYISSGGGITYYADSVKGRFTISRDNSKNTLYLQMNSLRAEDTAVYYCAAHYFGSSGPFAYWGQGTLVTVSS VL: DIQMTQSPSSLSASVGDRVTITCRASENIFAYLAWYQQKPGKAPKLLIYNTRTLQSGVPSRFSGSGSGTDFTLTISSLQPEDFATYYCQHHYGTPFTFGQGTKLEIK",binding result,[3],binds
same,binding result,[4],binds

# Source: patent publication US20220340682A1 (Sanofi, published 2022)
